Reference: the DeepSol protein solubility set

Assay: soluble on expression in E. coli; label from the status in PepcDB or PDB records

Sequence	soluble on expression in E. coli
MSYRKKLTSPEDAVGLIRSGMRVFVSGNAATPTPLLKALAARKDELENVELVHLLQMGEDPFASLEMEGHFRRRSLFVGPADREAVNQGRADYVPVMLHQVPWLFKRGILPLDAAIVQVSPPDEHGFCSLGVEVIATKAAVEAAPIVIAMVNPRMPRTLGDTFVHVSRFTAIVEVDWPLPELKREGFGEVERRIGEHVAGLIEDGATLQMGIGAIPDAVLASLEGRRDLGVHTEMISDGVLEAWEKGLITGAKKSLHPGKIVGTFVLGSERLYRFVHDNPLFELHPADYVNDPFVIAQNRKMVAINSAIEVDLTGQVVADSIGTRIYSGFGGQLDFIRGAARSEGGKPIIALPSTAKGQSRIVPFLKPGAGVVTTRADVHYVVTEWGVAELFGRSLRERAKALIAIAHPDFREALLQGAWERGLLPRGYPGVDLKGLEEKRGRP	soluble
MSYVIDRRLNGKNKSTVNRQRFLRRYRDHIKKAVEEAVSRRSITDMEHGEQISIPGRDIDEPVLHHGRGGKQTVVHPGNKEFTTGEHIARPQGGAGGKGPGKAGNSGEGMDEFSFQITQEEFLEFMFEDLELPNLVKRNLTGTDTFKTVRAGISNEGNPSRINIIRTLRSAHARRIALSGSSRAKLREATSELERIKREEPDNFGDIQALEVEIDRLKARIRRVPYLDTFDLKYNLLVKQPNPSSKAVMFCLMDVSGSMTQATKDIAKRFFILLYLFLKRNYDKIDVVFIRHHTSAREVDEEEFFYSRETGGTIVSSALKLMQEIMAARYPSSDWNIYAAQASDGDNWNDDSPICREILTKQIMPFVQYYTYVEITPREHQALWYEYERIGDDFADTFAQQQLVSAGDIYPVFRELFQRRLVSAAALEHHHHHH	not soluble
MSYYHHHHHHLESTSLYKKAGFMADQLTPHLEIPTAIKPRDGRFGSGPSKVRLEQLQTLTTTAAALFGTSHRQAPVKNLVGRVRSGLAELFSLPDGYEVILGNGGATAFWDAAAFGLIDKRSLHLTYGEFSAKFASAVSKNPFVGEPIIITSDPGSAPEPQTDPSVDVIAWAHNETSTGVAVAVRRPEGSDDALVVIDATSGAGGLPVDIAETDAYYFAPQKNFASDGGLWLAIMSPAALSRIEAIAATGRWVPDFLSLPIAVENSLKNQTYNTPAIATLALLAEQIDWLVGNGGLDWAVKRTADSSQRLYSWAQERPYTTPFVTDPGLRSQVVGTIDFVDDVDAGTVAKILRANGIVDTEPYRKLGRNQLRVAMFPAVEPDDVSALTECVDWVVERL	soluble
MTAAIAAPAYDAIVIGSGIGGLVTATQLAAKGAKVLVLERYLIPGGSAGWFEREGYRFDFGASIIFGFGDPGTTNLLTPPLADVGQALETIPDPVQIHYHLPNQLDLKVHRDYEAFLQELIAQFPQEAEGIRRFYDECWQVFNCLNAMPLLSLEEPKYLFNVFLQHPLACLGLVKYLPQNVGDIARRYIRNPDLLKFIDMECYCWSVVPATMTPMINAGMVFSDRHYGGINYPKGGVGRIAEKLVAGLEAKGSSIRYKARVTRILTEKGRAIGVELADGEKLYAKRIISNATRWNTFG	soluble
MTAGLHHAAANGVRVRPFRRHPTKRYILTGAPGAGKTVLLRALETAGEVVVEEAATDVIALAQAQGVDQPWTDPGFIDTIVGLQRQRQTRAVGDRIFFDRSPVCALALARFLGHPVSALLEDELARIVREGVYQRRVFLVQGLGFITPTAARRISLDDAQAFEEVHQAAYTELGFELAPIAPGPVGDRVRRVLGAVLEHHHHHH	not soluble
MTALPLSAVTVVSVCYNSDRLIRDLVTAIPDETPIILVDNGHTNTFADLPPHRNVIIVKLDHNLGFGRGCNAGADVAQTPWILFLNPDARLNPGAIEGLLQAAAQYPSAIAFNPRIYNEDGSPYFKRRSWLLPRQHYMKKGWPSADAVVPVLSGAALFVSKKSFDYIGGFDPSIFMYHEDDDLSLRLSALGELRFVRNSTVVHFAGYSSGRSPEIARFKAYHMAQSKIYAGQKHHRPFAKTSTLLQGCLLLLSPHVFFSARRRAKALGFLHGALAKIWSELLNAASTSSQKKT	soluble
MTARYIAIDWGSTNLRAWLYQGDKCLESRQSEAGVTRLNGKSPDAVLAEVTTHWRDSATPVVMAGMIGSNVGWQNAPYLPVPALFSAIGEQLTAVGDNIWIIPGLCVSREDNHNVMRGEETQLLGACELSPSSVYVMPGTHCKWVQTDTQQIHDFRTVMTGELHHLLLRHSLVGAGLPEQEVSGDAYAAGLERGLNSPAVLPSLFEVRASHVLGHLAREQVSDFLSGLLIGAEVASMSESFAAQQAITLVAGPALISRYQQAFSAIGRDVSTVDGDMAFQAGIRSIAHAVAN	not soluble
MTAYGFIIPVFNHPHYLDQLVETLSRYQLPMILVNDGSNEECSTKLRVLDQSYTQVHLVEHAYNQGKGQAVITGLHYADQLGLSHALQIDCDGQHQWADVEQFLQLSQQYPEKVIIGQPIFDASIPKKRLYGRYLTHVWVWINSLSFEIKDSMCGFRVYPLGPTLKVIKQAKFQPRMGFDSEILVRLKWENLAFINVPTAVIYPEHGILEHHHHHH	not soluble
MTDDNDNKNTELPMSASEVTAGTKIVRRAANQKPSRVVADICVVGSGAAGMSAAIEGARAGRKVVLVDSLPALGGQAVNSIIGTFCGLFSNGSDGYQFTHGIADDLLGDLGAQENALFYRRGPHTTVVYYDEVALGRWVEKAMLAAGVTVIVGAVMRNVRVAGRRVTGIDLSTRYGDVEVEANGFVDASGDAALVWQAGFACREPDDGPIYGTQMLIVENIDESKVPSREELPARMREKAGDYGLLRREGLSFVIPGRGVAAMNMTHVETPLEPLEASRKGIEGKDQADRAFAFLRNEFPACFGKARIRAYGLPGIRQTRWIVGRQQLSVDDVRAGTKFEDAIGRTAWPIELHDHGSGHHWHIFDKDHVHYVPFGSLTPQEAENIVAAGRCIDADKAALSSVRVMGPCMAMGAAAAHALDLAGSGSVHQIDIDALKWRVRDNLERTDLEHHHHHH	not soluble
MTDETENVPKTEQEVPNDPESEKEVKEDAKEEVKDLIPEFYSQHGGDPRLIDIAASVWLSGIPTDFITDTYEQFCETIKNIMKMGHKLDVSTVSKIVRIPNLDSNAKNSEHALRALICFSDKKHIYRMMTREAEFAKEEMKVELIEELPSDALEISEDDKCLLLNGLVEAEDAGDDVDVGGGDDDEIDELMDHDDEGGHDEHEEDEESDVKKEEEKGSEKKEKKPEPPKKKVYEDEDEKAPFEMYWDGAPEFQWRLCEGPRDEKKLIIDNLLWADLNNVFIYRTIQKSTTCEINFPTRFNSDGNRTCHGKLTLFFPGNVAIMDEALKHLVYFRSGDGRRIKVFLPQTTVSLKRKEEFEGKLGRVIKPTERMMQLIVKILPDGYTPTLDEACAWFPLQAVIQCDLVNDEMGNPCAVVKFETAEEAVAAHAGKSFVTIVQKSMITVKDSEGNEKEEEKETETHCNVFMRGGIIMGF	not soluble
MTDIAQLLGKDADSLLQHRCMTIPSDQLYLPGKDYVDRVMIDNNRPPAVLRNMQTLYNTGRLAGTGYLSILPVDQGVEHSAGASFAANPRYFDPKNIVELAIEAGCNCVASTYGVLASVSRRYAHRIPFLVKLNHNETLSYPTEYDQTLYASVEQAFNMGAVAVGATIYFGSEQSRRQIEEISAAFERAHELGMVTVLWAYLRNSSFKKDGVDYHVSADLTGQANHLAATIGADIVKQKMAENNGGYKAVNFGYTDDRVYSKLTSDNPIDLVRYQLANCYMGRAGLINSGGADGGDTDLGDAVRTAVINKRAGGMGLILGRKAFKKSMADGVKLINAVQDVYLDSKVTIA	not soluble
MTDKLPFALYSRCVKAGKRFYYIDAKRDSKGNDYLVITESNSAEEGSAMTRHKVFLYREDFAKFTEAFLDVLKSFEKRSGVSGCEQAIGLSELEQSLSDMTTGVEGLAESSDSILEEDEPLKIDFDF	not soluble
MTDRRQYAPATQRNRETIAAVLQEYLPSQGSILEIASGTGEHACFFAPLFSPRWWITSDPDPLCRESIMAWRDHQALANFQSPLDLDVNDQVWPVEREILREPVTSIVAINLIHISPWESCLGLLTGAERILPEGGILYLYGPYRQKGVPTAPSNEAFDQSLQSRNPAWGLRQLEDVIGEAGKRNLHNQAIIPMPANNLSVIFQKGLEHHHHHH	not soluble
MTDTARKIVAQPLSAAAFAPFGQVIDTAQVASRPMNDGRARRFHDLAEIEVIGNGARVVVGLVEAEPYAVPLWLNLVERHPLGAQAFVPLNAAPFLVVVCPDESGKPGAPQAFITAPHQGVCYARNTWHSVLTPFGAAQDFVVIDRGGPGVNLEEHLFDEPWIVHLSTSGLEHHHHHH	soluble
